Experimental data published in ChEMBL document CHEMBL1142227, “Structural basis for the high all-trans-retinaldehyde reductase activity of the tumor marker AKR1B10” (Proc Natl Acad Sci U S A, 2007).
One block for each compound: values may come before it.

Tests used:
[1] = biological target: Aldo-keto reductase family 1 member B10 (Homo sapiens) (UniProt O60218); test: Inhibition of retinaldehyde reductase activity of human AKR1B10 expressed in COS7 cells at 1 uM relative to control; assay type: cell-based; parameters: scale not given: the % may be the effect or the level left; conditions: COS-7
Chain of Aldo-keto reductase family 1 member B10 (Homo sapiens) (O60218 whole entry, looked up): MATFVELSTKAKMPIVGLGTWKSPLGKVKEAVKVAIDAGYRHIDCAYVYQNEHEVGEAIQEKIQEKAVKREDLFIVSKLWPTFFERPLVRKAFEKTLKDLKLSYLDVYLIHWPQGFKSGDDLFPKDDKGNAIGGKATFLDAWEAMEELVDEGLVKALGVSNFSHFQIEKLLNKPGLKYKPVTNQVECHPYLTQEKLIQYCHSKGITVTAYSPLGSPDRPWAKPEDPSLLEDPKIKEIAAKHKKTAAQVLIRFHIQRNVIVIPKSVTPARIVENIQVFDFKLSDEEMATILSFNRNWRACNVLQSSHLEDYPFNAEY

[2] = system: CC1=C(/C=C/C(C)=C/C=C/C(C)=C/C=O)C(C)(C)CCC1; test: (§1) Ratio of Kcat to Km for human AKR1B1
[3] = system: O=CC(O)CO; test: as §1
[4] = system: CC1=C(/C=C/C(C)=C\C=C\C(C)=C\C=O)C(C)(C)CCC1; test: as §1
[5] = system: CC1=C(/C=C/C(C)=C/C=C/C(C)=C/C=O)C(C)(C)CCC1; test: (§2) Activity of human AKR1B1 by BSA/HPLC method
[6] = system: O=CC(O)CO; test: as §2
[7] = system: CC1=C(/C=C/C(C)=C\C=C\C(C)=C\C=O)C(C)(C)CCC1; test: as §2
[8] = system: CC1=C(/C=C/C(C)=C/C=C/C(C)=C/C=O)C(C)(C)CCC1; test: (§3) Activity of human AKR1B1 by Tween 80 / spectrophotometer method
[9] = system: CC1=C(/C=C/C(C)=C/C=C/C(C)=C/C=O)C(C)(C)C[C@@H](O)C1; test: as §3
[10] = system: CC1=C(/C=C/C(C)=C/C=C/C(C)=C/C=O)C(C)(C)CCC1; test: (§4) Ratio of Kcat to Km for human wild type AKR1B10
[11] = system: O=CC(O)CO; test: as §4
[12] = system: CC1=C(/C=C/C(C)=C\C=C\C(C)=C\C=O)C(C)(C)CCC1; test: as §4
[13] = system: CC1=C(/C=C/C(C)=C/C=C/C(C)=C/C=O)C(C)(C)CCC1; test: (§5) Activity of human wild type AKR1B10 by BSA/HPLC method
[14] = system: O=CC(O)CO; test: as §5
[15] = system: CC1=C(/C=C/C(C)=C\C=C\C(C)=C\C=O)C(C)(C)CCC1; test: as §5
[16] = system: CC1=C(/C=C/C(C)=C/C=C/C(C)=C/C=O)C(C)(C)CCC1; test: (§6) Activity of human wild type AKR1B10 by Tween 80 / spectrophotometer method
[17] = system: CC1=C(/C=C/C(C)=C/C=C/C(C)=C/C=O)C(C)(C)C[C@@H](O)C1; test: as §6
[18] = system: CC1=C(/C=C/C(C)=C/C=C/C(C)=C/C=O)C(C)(C)CCC1; test: (§7) Ratio of Kcat to Km for human AKR1B10 K125L mutant
[19] = system: O=CC(O)CO; test: as §7
[20] = system: CC1=C(/C=C/C(C)=C\C=C\C(C)=C\C=O)C(C)(C)CCC1; test: as §7
[21] = system: CC1=C(/C=C/C(C)=C/C=C/C(C)=C/C=O)C(C)(C)CCC1; test: (§8) Activity of human AKR1B10 K125L mutant by BSA/HPLC method
[22] = system: O=CC(O)CO; test: as §8
[23] = system: CC1=C(/C=C/C(C)=C\C=C\C(C)=C\C=O)C(C)(C)CCC1; test: as §8
[24] = system: CC1=C(/C=C/C(C)=C/C=C/C(C)=C/C=O)C(C)(C)CCC1; test: (§9) Activity of human AKR1B10 K125L mutant by Tween 80 / spectrophotometer method
[25] = system: CC1=C(/C=C/C(C)=C/C=C/C(C)=C/C=O)C(C)(C)C[C@@H](O)C1; test: as §9
[26] = system: CC1=C(/C=C/C(C)=C/C=C/C(C)=C/C=O)C(C)(C)CCC1; test: (§10) Ratio of Kcat to Km for human AKR1B10 K125L/V301L mutant
[27] = system: O=CC(O)CO; test: as §10
[28] = system: CC1=C(/C=C/C(C)=C/C=C/C(C)=C/C=O)C(C)(C)CCC1; test: (§11) Activity of human AKR1B10 K125L/V301L mutant by BSA/HPLC method
[29] = system: O=CC(O)CO; test: as §11
[30] = system: CC1=C(/C=C/C(C)=C/C=C/C(C)=C/C=O)C(C)(C)CCC1; test: (§12) Activity of human AKR1B10 V301L mutant by BSA/HPLC method
[31] = system: O=CC(O)CO; test: as §12
[32] = system: CC1=C(/C=C/C(C)=C\C=C\C(C)=C\C=O)C(C)(C)CCC1; test: as §12
[33] = system: CC1=C(/C=C/C(C)=C/C=C/C(C)=C/C=O)C(C)(C)CCC1; test: (§13) Ratio of Kcat to Km for human AKR1B10 V301L mutant
[34] = system: O=CC(O)CO; test: as §13
[35] = system: CC1=C(/C=C/C(C)=C\C=C\C(C)=C\C=O)C(C)(C)CCC1; test: as §13

Chain of Aldo-keto reductase family 1 member B10 (Homo sapiens), O60218 K125L,V301L (O60218 whole entry K125L/V301L): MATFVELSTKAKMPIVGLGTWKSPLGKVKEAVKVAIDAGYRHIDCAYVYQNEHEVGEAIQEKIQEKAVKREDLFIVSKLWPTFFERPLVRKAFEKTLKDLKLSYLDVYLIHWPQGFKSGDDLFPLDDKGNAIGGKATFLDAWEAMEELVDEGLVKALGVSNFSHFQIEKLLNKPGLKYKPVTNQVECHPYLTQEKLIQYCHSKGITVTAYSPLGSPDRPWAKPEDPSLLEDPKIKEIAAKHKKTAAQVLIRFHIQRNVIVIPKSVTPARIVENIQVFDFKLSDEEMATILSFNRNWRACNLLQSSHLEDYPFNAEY
Chain of Aldo-keto reductase family 1 member B10 (Homo sapiens), O60218 V301L (O60218 whole entry V301L): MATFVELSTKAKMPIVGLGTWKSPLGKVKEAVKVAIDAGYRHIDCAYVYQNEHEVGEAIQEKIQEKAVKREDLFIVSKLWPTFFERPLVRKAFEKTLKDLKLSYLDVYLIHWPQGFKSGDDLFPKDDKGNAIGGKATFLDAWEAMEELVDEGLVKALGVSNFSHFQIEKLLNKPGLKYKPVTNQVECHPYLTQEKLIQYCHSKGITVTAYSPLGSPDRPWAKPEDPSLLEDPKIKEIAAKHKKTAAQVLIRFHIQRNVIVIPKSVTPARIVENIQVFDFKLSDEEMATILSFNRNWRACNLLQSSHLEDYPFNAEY
Chain of Aldo-keto reductase family 1 member B10 (Homo sapiens), O60218 K125L (O60218 whole entry K125L): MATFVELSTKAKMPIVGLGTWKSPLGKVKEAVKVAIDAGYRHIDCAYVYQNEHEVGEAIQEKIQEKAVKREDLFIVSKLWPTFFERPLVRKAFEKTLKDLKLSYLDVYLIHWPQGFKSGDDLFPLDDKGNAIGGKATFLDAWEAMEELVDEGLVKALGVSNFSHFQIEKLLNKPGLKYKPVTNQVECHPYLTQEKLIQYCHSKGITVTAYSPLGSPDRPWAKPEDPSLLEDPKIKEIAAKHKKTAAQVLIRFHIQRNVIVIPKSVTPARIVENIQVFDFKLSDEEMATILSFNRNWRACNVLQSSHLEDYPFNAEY
Chain of Aldo-keto reductase family 1 member B10 (Homo sapiens), O60218 (O60218 whole entry): as the sequence (O60218 whole entry, looked up) above

Activity [1]: 50%
Compound: COc1ccc2c(C(=S)N(C)CC(=O)O)cccc2c1C(F)(F)F

Compound: Aldo-keto reductase family 1 member B1 (Homo sapiens) (from UniProt P15121)
kcat/Km [2]: 5330 M⁻¹ s⁻¹
kcat/Km [3]: 11000 M⁻¹ s⁻¹
kcat/Km [4]: 25000 M⁻¹ s⁻¹
Km [5]: 1.1 µM
kcat [5]: 0.00583 s⁻¹
Km [6]: 50 µM
kcat [6]: 0.517 s⁻¹
Km [7]: 0.4 µM
kcat [7]: 0.0117 s⁻¹
kcat [8]: 0.00617 s⁻¹
kcat [9]: 0.0967 s⁻¹

Compound: Aldo-keto reductase family 1 member B10 (Homo sapiens), O60218
kcat/Km [10]: 750000 M⁻¹ s⁻¹
kcat/Km [11]: 100 M⁻¹ s⁻¹
kcat/Km [12]: 21700 M⁻¹ s⁻¹
Km [13]: 0.6 µM
kcat [13]: 0.45 s⁻¹
Km [14]: 6000 µM
kcat [14]: 0.583 s⁻¹
Km [15]: 0.7 µM
kcat [15]: 0.015 s⁻¹
kcat [16]: 0.297 s⁻¹
kcat [17]: 0.288 s⁻¹

Compound: Aldo-keto reductase family 1 member B10 (Homo sapiens), O60218 K125L
kcat/Km [18]: 218000 M⁻¹ s⁻¹
kcat/Km [19]: 117 M⁻¹ s⁻¹
kcat/Km [20]: 21700 M⁻¹ s⁻¹
Km [21]: 0.15 µM
kcat [21]: 0.0333 s⁻¹
Km [22]: 5200 µM
kcat [22]: 0.593 s⁻¹
Km [23]: 0.7 µM
kcat [23]: 0.015 s⁻¹
kcat [24]: 0.0733 s⁻¹
kcat [25]: 0.308 s⁻¹

Compound: Aldo-keto reductase family 1 member B10 (Homo sapiens), O60218 K125L,V301L
kcat/Km [26]: 58300 M⁻¹ s⁻¹
kcat/Km [27]: 81.7 M⁻¹ s⁻¹
Km [28]: 1 µM
kcat [28]: 0.0583 s⁻¹
Km [29]: 7300 µM
kcat [29]: 0.59 s⁻¹

Compound: Aldo-keto reductase family 1 member B10 (Homo sapiens), O60218 V301L
Km [30]: 0.6 µM
kcat [30]: 0.128 s⁻¹
Km [31]: 6000 µM
kcat [31]: 0.683 s⁻¹
Km [32]: 0.3 µM
kcat [32]: 0.01 s⁻¹
kcat/Km [33]: 212000 M⁻¹ s⁻¹
kcat/Km [34]: 117 M⁻¹ s⁻¹
kcat/Km [35]: 30000 M⁻¹ s⁻¹
